Assay results taken from US20140274782A1, “AFFINITY REAGENTS AND METHODS FOR DETECTION, PURIFICATION, AND PROTEOMIC ANALYSIS OF METHYLATED PROTEINS” (The Board of Trustees of the Leland Stanford Junior …, priority 2013, published 2014).
One block for each molecule: values may come before it.

Key:
[1] = test system: 3×MBT domain of L3MBTL1; experiment: Triple SILAC pull-down, 3xMBT/3xMBTD355N ratio (cytoplasmic, nuclear and chromatin fractions of 293T cells); format: binding, human; conditions: SILAC ratio, pull-down 3xMBT vs 3xMBTD355N; for 3xMBT/D355N UNC Heavy: experiment with UNC0638 in heavy SILAC media; for 3xMBT/D355N UNC Light: experiment with UNC0638 in light SILAC media;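 for all read-outs here: proteins quantified with MaxQuant, requiring at least two unique peptides and quantification in both label directions, normalized to the mean of proteins from a digested loading control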
[2] = biological target: T1, G9a and GLP (Homo sapiens, UniProt Q96KQ7+Q9H9B1); experiment: Triple SILAC pull-down after UNC0638 treatment of 293T cells, DMSO/UNC0638 ratio of protein captured by 3×MBT; format: cell-based; parameters: cells were treated for 24 hours with UNC0638 at 2.5 μM or DMSO vehicle control; endogenous in cells; host or cells: HEK 293T; conditions: for Relative to UNC0638 UNC Heavy / Relative to UNC0638 UNC Light: SILAC ratio DMSO/UNC0638 of protein pulled down with 3xMBT; for Relative to UNC0638 UNC Heavy: UNC0638 in heavy SILAC media; for Relative to UNC0638 UNC Light: UNC0638 in light SILAC media; for Relative to UNC0638 Average: average of UNC Light and UNC Heavy experiments;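 for all read-outs here: mass spectrometry (Q-Exactive) SILAC quantitation, DMSO/UNC0638 ratio computed after subtracting 3×MBTD355N mutant pull-down background, only proteins with at least twofold 3×MBT over mutant signal considered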
T1 sequence (Q96KQ7 2-1210 limits assumed): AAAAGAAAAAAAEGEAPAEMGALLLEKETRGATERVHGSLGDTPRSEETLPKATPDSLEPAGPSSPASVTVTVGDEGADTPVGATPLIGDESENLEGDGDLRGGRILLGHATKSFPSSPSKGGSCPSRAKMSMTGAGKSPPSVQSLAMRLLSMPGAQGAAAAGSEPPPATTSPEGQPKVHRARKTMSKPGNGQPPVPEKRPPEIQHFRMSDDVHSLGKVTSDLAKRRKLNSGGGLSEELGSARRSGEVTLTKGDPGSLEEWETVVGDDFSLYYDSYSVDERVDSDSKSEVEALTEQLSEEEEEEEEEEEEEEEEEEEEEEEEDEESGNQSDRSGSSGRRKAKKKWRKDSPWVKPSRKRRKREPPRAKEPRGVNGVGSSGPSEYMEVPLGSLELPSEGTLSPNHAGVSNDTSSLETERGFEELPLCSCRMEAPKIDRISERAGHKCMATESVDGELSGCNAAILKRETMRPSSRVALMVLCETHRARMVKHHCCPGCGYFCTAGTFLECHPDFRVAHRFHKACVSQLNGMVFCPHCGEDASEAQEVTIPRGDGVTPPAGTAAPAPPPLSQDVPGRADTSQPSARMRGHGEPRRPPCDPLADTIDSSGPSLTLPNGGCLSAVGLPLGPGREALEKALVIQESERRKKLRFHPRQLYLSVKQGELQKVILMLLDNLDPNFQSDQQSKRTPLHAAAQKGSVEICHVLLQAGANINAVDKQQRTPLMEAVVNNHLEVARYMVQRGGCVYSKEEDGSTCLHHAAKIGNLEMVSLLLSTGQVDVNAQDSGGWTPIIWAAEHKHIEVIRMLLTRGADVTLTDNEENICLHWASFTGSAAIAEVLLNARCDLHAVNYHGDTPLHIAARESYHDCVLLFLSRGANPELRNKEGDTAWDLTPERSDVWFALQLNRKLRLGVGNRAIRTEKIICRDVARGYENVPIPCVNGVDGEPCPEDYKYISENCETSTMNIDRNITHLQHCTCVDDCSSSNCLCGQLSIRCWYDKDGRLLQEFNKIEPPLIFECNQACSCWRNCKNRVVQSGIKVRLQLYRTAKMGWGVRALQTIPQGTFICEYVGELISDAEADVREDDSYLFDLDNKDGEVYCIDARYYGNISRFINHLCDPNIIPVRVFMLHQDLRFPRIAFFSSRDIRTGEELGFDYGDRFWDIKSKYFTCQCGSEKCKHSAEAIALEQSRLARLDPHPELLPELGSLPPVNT
T1 sequence (Q9H9B1 2-1298 limits assumed): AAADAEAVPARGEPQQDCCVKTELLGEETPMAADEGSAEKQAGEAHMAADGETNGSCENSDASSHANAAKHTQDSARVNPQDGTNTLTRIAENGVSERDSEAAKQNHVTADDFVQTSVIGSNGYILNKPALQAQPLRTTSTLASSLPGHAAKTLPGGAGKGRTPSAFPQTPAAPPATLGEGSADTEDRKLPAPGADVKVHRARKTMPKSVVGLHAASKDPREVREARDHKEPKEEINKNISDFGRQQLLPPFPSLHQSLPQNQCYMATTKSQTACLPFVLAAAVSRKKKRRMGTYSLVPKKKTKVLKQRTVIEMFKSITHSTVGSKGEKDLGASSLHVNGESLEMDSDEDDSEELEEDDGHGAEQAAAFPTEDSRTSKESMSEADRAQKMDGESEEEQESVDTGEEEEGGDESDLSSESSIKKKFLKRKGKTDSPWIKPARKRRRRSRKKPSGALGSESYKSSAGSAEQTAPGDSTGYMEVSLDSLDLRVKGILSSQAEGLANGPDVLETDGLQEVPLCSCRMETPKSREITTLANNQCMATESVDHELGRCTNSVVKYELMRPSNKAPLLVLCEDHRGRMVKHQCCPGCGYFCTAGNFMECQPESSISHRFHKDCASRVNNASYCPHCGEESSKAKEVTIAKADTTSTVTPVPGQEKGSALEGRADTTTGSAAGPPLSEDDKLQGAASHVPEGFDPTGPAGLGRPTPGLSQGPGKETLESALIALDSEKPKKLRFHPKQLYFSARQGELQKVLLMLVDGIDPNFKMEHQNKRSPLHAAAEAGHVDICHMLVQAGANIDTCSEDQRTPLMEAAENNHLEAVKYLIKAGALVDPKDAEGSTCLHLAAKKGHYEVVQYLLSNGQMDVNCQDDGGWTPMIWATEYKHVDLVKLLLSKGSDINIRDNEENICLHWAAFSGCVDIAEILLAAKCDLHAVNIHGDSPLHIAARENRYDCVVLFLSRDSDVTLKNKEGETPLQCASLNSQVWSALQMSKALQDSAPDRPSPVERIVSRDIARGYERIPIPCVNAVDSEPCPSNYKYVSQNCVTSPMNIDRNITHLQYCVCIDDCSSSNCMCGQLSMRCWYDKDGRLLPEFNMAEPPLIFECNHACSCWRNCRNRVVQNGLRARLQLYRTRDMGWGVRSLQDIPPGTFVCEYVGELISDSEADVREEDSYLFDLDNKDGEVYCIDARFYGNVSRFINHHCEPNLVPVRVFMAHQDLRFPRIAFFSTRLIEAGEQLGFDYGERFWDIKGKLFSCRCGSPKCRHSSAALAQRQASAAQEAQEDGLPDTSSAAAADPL

B1: SNX9 (protein, UniProt Q9Y5X1 1-595, looked up)
Sorting nexin-9: MATKARVMYDFAAEPGNNELTVNEGEIITITNPDVGGGWLEGRNIKGERGLVPTDYVEILPSDGKDQFSCGNSVADQAFLDSLSASTAQASSSAASNNHQVGSGNDPWSAWSASKSGNWESSEGWGAQPEGAGAQRNTNTPNNWDTAFGHPQAYQGPATGDDDDWDEDWDGPKSSSYFKDSESADAGGAQRGNSRASSSSMKIPLNKFPGFAKPGTEQYLLAKQLAKPKEKIPIIVGDYGPMWVYPTSTFDCVVADPRKGSKMYGLKSYIEYQLTPTNTNRSVNHRYKHFDWLYERLLVKFGSAIPIPSLPDKQVTGRFEEEFIKMRMERLQAWMTRMCRHPVISESEVFQQFLNFRDEKEWKTGKRKAERDELAGVMIFSTMEPEAPDLDLVEIEQKCEAVGKFTKAMDDGVKELLTVGQEHWKRCTGPLPKEYQKIGKALQSLATVFSSSGYQGETDLNDAITEAGKTYEEIASLVAEQPKKDLHFLMECNHEYKGFLGCFPDIIGTHKGAIEKVKESDKLVATSKITLQDKQNMVKRVSIMSYALQAEMNHFHSNRIYDYNSVIRLYLEQQVQFYETIAEKLRQALSRFPVM
3xMBT/D355N UNC Heavy [1]: 2.60 log base 2
3xMBT/D355N UNC Light [1]: 2.47 log base 2
Relative to UNC0638 UNC Heavy [2]: 0.31 log base 2
Relative to UNC0638 UNC Light [2]: 0.04 log base 2
Relative to UNC0638 Average [2]: 0.18 log base 2

B2: HNRNPD (protein, UniProt Q14103 2-355, looked up)
Heterogeneous nuclear …: SEEQFGGDGAAAAATAAVGGSAGEQEGAMVAATQGAAAAAGSGAGTGGGTASGGTEGGSAESEGAKIDASKNEEDEGHSNSSPRHSEAATAQREEWKMFIGGLSWDTTKKDLKDYFSKFGEVVDCTLKLDPITGRSRGFGFVLFKESESVDKVMDQKEHKLNGKVIDPKRAKAMKTKEPVKKIFVGGLSPDTPEEKIREYFGGFGEVESIELPMDNKTNKRRGFCFITFKEEEPVKKIMEKKYHNVGLSKCEIKVAMSKEQYQQQQQWGSRGGFAGRARGRGGGPSQNWNQGYSNYWNQGYGNYGYNSQGYGGYGGYDYTGYNNYYGYGDYSNQQSGYGKVSRRGGHQNSYKPY
3xMBT/D355N UNC Heavy [1]: 4.07 log base 2
3xMBT/D355N UNC Light [1]: 4.56 log base 2
Relative to UNC0638 UNC Heavy [2]: 0.06 log base 2
Relative to UNC0638 UNC Light [2]: 0.29 log base 2
Relative to UNC0638 Average [2]: 0.18 log base 2

B3: U2AF2 (protein, UniProt P26368 2-475, looked up)
Splicing factor U2AF 65 kDa …: SDFDEFERQLNENKQERDKENRHRKRSHSRSRSRDRKRRSRSRDRRNRDQRSASRDRRRRSKPLTRGAKEEHGGLIRSPRHEKKKKVRKYWDVPPPGFEHITPMQYKAMQAAGQIPATALLPTMTPDGLAVTPTPVPVVGSQMTRQARRLYVGNIPFGITEEAMMDFFNAQMRLGGLTQAPGNPVLAVQINQDKNFAFLEFRSVDETTQAMAFDGIIFQGQSLKIRRPHDYQPLPGMSENPSVYVPGVVSTVVPDSAHKLFIGGLPNYLNDDQVKELLTSFGPLKAFNLVKDSATGLSKGYAFCEYVDINVTDQAIAGLNGMQLGDKKLLVQRASVGAKNATLVSPPSTINQTPVTLQVPGLMSSQVQMGGHPTEVLCLMNMVLPEELLDDEEYEEIVEDVRDECSKYGLVKSIEIPRPVDGVEVPGCGKIFVEFTSVFDCQKAMQGLTGRKFANRVVVTKYCDPDSYHRRDFW
3xMBT/D355N UNC Heavy [1]: 2.86 log base 2
3xMBT/D355N UNC Light [1]: 2.60 log base 2
Relative to UNC0638 UNC Heavy [2]: 0.14 log base 2
Relative to UNC0638 UNC Light [2]: 0.20 log base 2
Relative to UNC0638 Average [2]: 0.17 log base 2

Continued, in another order:

Relative to UNC0638 UNC Heavy [2]: 0.63 log base 2
Relative to UNC0638 UNC Light [2]: −0.28 log base 2
Relative to UNC0638 Average [2]: 0.18 log base 2
B4: PRPF4 (protein, UniProt O43172 1-522, looked up)
U4/U6 small nuclear …: MASSRASSTQATKTKAPDDLVAPVVKKPHIYYGSLEEKERERLAKGESGILGKDGLKAGIEAGNINITSGEVFEIEEHISERQAEVLAEFERRKRARQINVSTDDSEVKACLRALGEPITLFGEGPAERRERLRNILSVVGTDALKKTKKDDEKSKKSKEEYQQTWYHEGPNSLKVARLWIANYSLPRAMKRLEEARLHKEIPETTRTSQMQELHKSLRSLNNFCSQIGDDRPISYCHFSPNSKMLATACWSGLCKLWSVPDCNLLHTLRGHNTNVGAIVFHPKSTVSLDPKDVNLASCAADGSVKLWSLDSDEPVADIEGHTVRVARVMWHPSGRFLGTTCYDRSWRLWDLEAQEEILHQEGHSMGVYDIAFHQDGSLAGTGGLDAFGRVWDLRTGRCIMFLEGHLKEIYGINFSPNGYHIATGSGDNTCKVWDLRQRRCVYTIPAHQNLVTGVKFEPIHGNFLLTGAYDNTAKIWTHPGWSPLKTLAGHEGKVMGLDISSDGQLIATCSYDRTFKLWMAE
3xMBT/D355N UNC Heavy [1]: 2.85 log base 2
3xMBT/D355N UNC Light [1]: 2.26 log base 2

Relative to UNC0638 UNC Heavy [2]: 0.07 log base 2
Relative to UNC0638 UNC Light [2]: 0.28 log base 2
Relative to UNC0638 Average [2]: 0.18 log base 2
B5: HNRNPA2B1 (protein, UniProt P22626 1-353, looked up)
Heterogeneous nuclear …: MEKTLETVPLERKKREKEQFRKLFIGGLSFETTEESLRNYYEQWGKLTDCVVMRDPASKRSRGFGFVTFSSMAEVDAAMAARPHSIDGRVVEPKRAVAREESGKPGAHVTVKKLFVGGIKEDTEEHHLRDYFEEYGKIDTIEIITDRQSGKKRGFGFVTFDDHDPVDKIVLQKYHTINGHNAEVRKALSRQEMQEVQSSRSGRGGNFGFGDSRGGGGNFGPGPGSNFRGGSDGYGSGRGFGDGYNGYGGGPGGGNFGGSPGYGGGRGGYGGGGPGYGNQGGGYGGGYDNYGGGNYGSGNYNDFGNYNQQPSNYGPMKSGNFGGSRNMGGPYGGGNYGPGGSGGSGGYGGRSRY
3xMBT/D355N UNC Heavy [1]: 3.43 log base 2
3xMBT/D355N UNC Light [1]: 3.97 log base 2
